{"source": "patent US20190351015", "key": {"[1]": {"target": "Nkx3.2 (156-316)"}, "[2]": {"target": "Nkx3.2 (130-320)"}, "[3]": {"target": "Nkx3.2 (112-333)"}, "[4]": {"target": "Nkx3.2 (123-320)"}, "[5]": {"target": "Nkx3.2 (162-312)"}, "[6]": {"target": "Nkx3.2 (123-333)"}, "[7]": {"target": "Nkx3.2 (165-310)"}, "[8]": {"target": "Nkx3.2 (112-320)"}, "[9]": {"target": "Nkx3.2 (153-318)"}, "[10]": {"target": "Nkx3.2 (1-307)"}, "[11]": {"target": "Nkx3.2 (159-314)"}, "[12]": {"target": "Nkx3.2 (99-333)"}, "[13]": {"target": "Nkx3.2 (42-333)"}, "[14]": {"target": "Nkx3.2 (1-333)"}, "[15]": {"target": "Nkx3.2 (99-330)"}, "[16]": {"target": "Nkx3.2 (99-320)"}, "[17]": {"target": "Nkx3.2 (105-327)"}, "[18]": {"target": "Nkx3.2 (1-320)"}, "[19]": {"target": "Nkx3.2 (110-324)"}, "[20]": {"target": "Nkx3.2 (150-320)"}, "[21]": {"target": "Nkx3.2 (99-327)"}}}
{"protein": "Siah1 (protein) MSRQTATALPTGTSKCPPSQRVPALTGTTASNNDLASLFECPVCFDYVLPPILQCQSGHLVCSNCRPKLTCCPTCRGPLGSIRNLAMEKVANSVLFPCKYASSGCEITLPHTEKADHEELCEFRPYSCPCPGASCKWQGSLDAVMPHLMHQHKSITTLQGEDIVFLATDINLPGAVDWVMMQSCFGFHFMLVLEKQEKYDGHQQFFAIVQLIGTRKQAENFAYRLELNGHRRRLTWEATPRSIHEGIATAIMNSDCLVFDTSIAQLFAENGNLGINVTISMC", "values": [{"measurement": "Degradation by Siah1", "setting": "[1]", "result": "++"}, {"measurement": "Degradation by Siah1", "setting": "[2]", "result": "-"}, {"measurement": "Degradation by Siah1", "setting": "[3]", "result": "++"}, {"measurement": "Degradation by Siah1", "setting": "[4]", "result": "-"}, {"measurement": "Degradation by Siah1", "setting": "[5]", "result": "++"}, {"measurement": "Degradation by Siah1", "setting": "[6]", "result": "-"}, {"measurement": "Degradation by Siah1", "setting": "[7]", "result": "++"}, {"measurement": "Degradation by Siah1", "setting": "[8]", "result": "-"}, {"measurement": "Degradation by Siah1", "setting": "[9]", "result": "-"}, {"measurement": "Degradation by Siah1", "setting": "[10]", "result": "-"}, {"measurement": "Degradation by Siah1", "setting": "[11]", "result": "++"}, {"measurement": "Degradation by Siah1", "setting": "[12]", "result": "++"}, {"measurement": "Degradation by Siah1", "setting": "[13]", "result": "+++"}, {"measurement": "Degradation by Siah1", "setting": "[14]", "result": "+++"}, {"measurement": "Degradation by Siah1", "setting": "[15]", "result": "+++"}, {"measurement": "Degradation by Siah1", "setting": "[16]", "result": "+"}, {"measurement": "Degradation by Siah1", "setting": "[17]", "result": "++"}, {"measurement": "Degradation by Siah1", "setting": "[18]", "result": "+"}, {"measurement": "Degradation by Siah1", "setting": "[19]", "result": "+++"}, {"measurement": "Degradation by Siah1", "setting": "[20]", "result": "-"}, {"measurement": "Degradation by Siah1", "setting": "[21]", "result": "+++"}]}
